According to patent US20050282743A1, “Molecular interactions in cells” (Arbor Vita Corporation, priority 2001, published 2005):

T1: GST-AIPC PDZ domain 1 (Homo sapiens (Human)), O15018
T1 chain: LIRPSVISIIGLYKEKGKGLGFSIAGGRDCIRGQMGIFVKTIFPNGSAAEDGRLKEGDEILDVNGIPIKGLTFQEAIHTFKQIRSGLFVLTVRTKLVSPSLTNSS

T2: GST-KIAA1526 PDZ domain 1 (Homo sapiens (Human)), Q9P202
T2 chain: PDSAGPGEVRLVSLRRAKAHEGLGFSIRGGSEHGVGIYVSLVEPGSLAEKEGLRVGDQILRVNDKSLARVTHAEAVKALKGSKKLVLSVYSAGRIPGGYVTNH

T3: GST-INADL PDZ domain 3 (Homo sapiens (Human)), Q8NI35
T3 chain: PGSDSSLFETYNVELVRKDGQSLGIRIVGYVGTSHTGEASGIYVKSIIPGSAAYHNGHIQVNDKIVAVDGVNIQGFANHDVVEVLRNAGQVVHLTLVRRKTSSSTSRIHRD

T4: GST-KIAA0382 PDZ domain 1 (Canis lupus familiaris (Dog) (Canis familiaris)), A0A8I3
T4 chain: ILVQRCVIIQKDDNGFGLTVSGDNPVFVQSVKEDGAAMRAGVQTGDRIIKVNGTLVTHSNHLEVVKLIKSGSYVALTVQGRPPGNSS

T5: GST-TIP1 PDZ domain 1 (Table 9 insert) (Homo sapiens (Human)), O14907
T5 chain: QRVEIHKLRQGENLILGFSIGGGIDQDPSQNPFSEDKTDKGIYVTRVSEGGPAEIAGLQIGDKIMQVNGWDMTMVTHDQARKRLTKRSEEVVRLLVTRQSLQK

T6: GST-APXL-1 PDZ domain 1 (Homo sapiens (Human)), Q13796
T6 chain: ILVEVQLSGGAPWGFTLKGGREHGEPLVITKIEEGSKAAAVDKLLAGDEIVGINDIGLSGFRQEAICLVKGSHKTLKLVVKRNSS

T7: GST-FLJ00011 PDZ domain 1 (Homo sapiens (Human)), Q9H5P4
T7 chain: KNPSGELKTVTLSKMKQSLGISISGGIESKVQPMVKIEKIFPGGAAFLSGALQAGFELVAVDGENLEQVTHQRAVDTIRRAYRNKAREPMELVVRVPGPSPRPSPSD

T8: GST-HEMBA 1003117 PDZ domain 1 (Homo sapiens (Human)), Q96JH8
T8 chain: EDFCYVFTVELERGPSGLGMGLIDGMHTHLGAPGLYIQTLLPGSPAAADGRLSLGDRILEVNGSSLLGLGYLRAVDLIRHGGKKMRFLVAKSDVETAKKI

T9: GST-KIAA0807(S) PDZ domain 1 (Homo sapiens (Human)), Q6P0Q8
T9 chain: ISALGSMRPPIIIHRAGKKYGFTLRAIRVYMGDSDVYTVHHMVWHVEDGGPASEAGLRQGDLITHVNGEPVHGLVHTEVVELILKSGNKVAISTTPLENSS

T10: GST-LIM-RIL PDZ domain 1 (Homo sapiens (Human)), P50479
T10 chain: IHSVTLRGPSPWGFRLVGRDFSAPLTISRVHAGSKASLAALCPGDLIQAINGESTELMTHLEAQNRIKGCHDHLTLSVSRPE

T11: GST-FLJ 10324 PDZ domain 1 [GST: P08515]
T11 chain: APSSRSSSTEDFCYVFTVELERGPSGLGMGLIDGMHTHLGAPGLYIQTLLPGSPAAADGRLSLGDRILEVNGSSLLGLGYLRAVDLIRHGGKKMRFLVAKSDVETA

T12: GST-Outer Membrane PDZ domain 1 (Homo sapiens (Human)), P57105
T12 chain: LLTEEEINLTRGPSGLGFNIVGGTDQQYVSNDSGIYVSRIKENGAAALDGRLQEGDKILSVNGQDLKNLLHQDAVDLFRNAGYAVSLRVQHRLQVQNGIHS

T13: GST-MINT1 PDZ domain 2 (Mus musculus (Mouse)), B2RUJ5
T13 chain: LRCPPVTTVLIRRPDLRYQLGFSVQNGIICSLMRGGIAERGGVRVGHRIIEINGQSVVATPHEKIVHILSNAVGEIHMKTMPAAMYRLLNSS


Target: T1, GST-AIPC PDZ domain 1 (Homo sapiens …)
Test: G' assay
Note: key of the grades not given here.

For KTMPAAMYRLLTAQEQPVYI (modifications not checked) [MINT-1], which Classification is on record?
Its Classification is 1 A450 class.

ELLQFCRTPNPALKNGQYWV (modifications not checked) [CSPG4 (chondroitin sulfae proteoglycan 4, melanoma-associated)] was tested. Which Classification did it give?
Its Classification is 5 A450 class.

Target: T2, GST-KIAA1526 PDZ domain 1 (Homo sapiens …)
Test: G' assay

With PIPAGGCTFSGIFPTLTSPL (modifications not checked) [KIA 1481] as the binder, how does the Classification read?
The Classification was 2 A450 class.

Target: T3, GST-INADL PDZ domain 3 (Homo sapiens …)
Test: G' assay

How did the Classification turn out when ELLQFCRTPNPALKNGQYWV (modifications not checked) [CSPG4 (chondroitin sulfae proteoglycan 4, melanoma-associated)] was run?
The Classification was 3 A450 class.

What follows are binders tested against GST-Atrophin-1 Interacting Protein PDZ domain 3 (Rattus norvegicus (Rat)), O88382 (assay: G' assay).
Sequence of GST-Atrophin-1 Interacting Protein PDZ domain 3 (Rattus norvegicus (Rat)), O88382 (O88382 774-865, tags or fused parts left off): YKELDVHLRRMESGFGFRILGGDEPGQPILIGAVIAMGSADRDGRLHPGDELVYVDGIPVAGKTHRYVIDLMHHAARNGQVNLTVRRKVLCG

How did the Classification turn out when ELLQFCRTPNPALKNGQYWV (modifications not checked) [CSPG4 (chondroitin sulfae proteoglycan 4, melanoma-associated)] was run?
The Classification was 2 A450 class.

Target: T4, GST-KIAA0382 PDZ domain 1 (Canis lupus …)
Test: G' assay

How did the Classification turn out when KTMPAAMYRLLTAQEQPVYI (modifications not checked) [MINT-1] was run?
Its Classification is 1 A450 class.

How did the Classification turn out when PIPAGGCTFSGIFPTLTSPL (modifications not checked) [KIA 1481] was run?
The Classification was 5 A450 class.

What follows are binders tested against GST-BAI-1 Associated Protein PDZ domain 2 (Mus musculus (Mouse)), Q6RHR9 (assay: G' assay).
Sequence of GST-BAI-1 Associated Protein PDZ domain 2 (Mus musculus (Mouse)), Q6RHR9 (Q6RHR9 455-558): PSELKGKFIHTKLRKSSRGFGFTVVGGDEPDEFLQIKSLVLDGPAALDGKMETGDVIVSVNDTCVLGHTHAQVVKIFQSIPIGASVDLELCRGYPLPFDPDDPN

With PIPAGGCTFSGIFPTLTSPL (modifications not checked) [KIA 1481] as the binder, how does the Classification read?
The Classification was 2 A450 class.

How did the Classification turn out when ELLQFCRTPNPALKNGQYWV (modifications not checked) [CSPG4 (chondroitin sulfae proteoglycan 4, melanoma-associated)] was run?
The Classification was 2 A450 class.

Each binder was assayed against GST-PAR3 PDZ domain 3 (Homo sapiens (Human)), Q8TEW0 (assay: G' assay).
Sequence of GST-PAR3 PDZ domain 3 (Homo sapiens (Human)), Q8TEW0 (Q8TEW0 579-681): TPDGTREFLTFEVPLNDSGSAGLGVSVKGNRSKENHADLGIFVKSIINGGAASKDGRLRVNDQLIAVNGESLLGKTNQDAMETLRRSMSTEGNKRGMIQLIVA

Which Classification does the source give for KTMPAAMYRLLTAQEQPVYI (modifications not checked) [MINT-1] here?
Its Classification is 5 A450 class.

ELLQFCRTPNPALKNGQYWV (modifications not checked) [CSPG4 (chondroitin sulfae proteoglycan 4, melanoma-associated)] was tested. Which Classification did it give?
The Classification was 3 A450 class.

Target: T5, GST-TIP1 PDZ domain 1 (Table 9 insert) …
Test: G' assay

For PIPAGGCTFSGIFPTLTSPL (modifications not checked) [KIA 1481], which Classification is on record?
The Classification was 2 A450 class.

Which Classification does the source give for ELLQFCRTPNPALKNGQYWV (modifications not checked) [CSPG4 (chondroitin sulfae proteoglycan 4, melanoma-associated)] here?
The Classification was 1 A450 class.

Target: T6, GST-APXL-1 PDZ domain 1 (Homo sapiens …)
Test: G' assay

For PIPAGGCTFSGIFPTLTSPL (modifications not checked) [KIA 1481], which Classification is on record?
Its Classification is 5 A450 class.

With ELLQFCRTPNPALKNGQYWV (modifications not checked) [CSPG4 (chondroitin sulfae proteoglycan 4, melanoma-associated)] as the binder, how does the Classification read?
Its Classification is 3 A450 class.

Target: T7, GST-FLJ00011 PDZ domain 1 (Homo sapiens …)
Test: G' assay

How did the Classification turn out when PIPAGGCTFSGIFPTLTSPL (modifications not checked) [KIA 1481] was run?
The Classification was 2 A450 class.

Target: T8, GST-HEMBA 1003117 PDZ domain 1 (Homo …)
Test: G' assay

For KTMPAAMYRLLTAQEQPVYI (modifications not checked) [MINT-1], which Classification is on record?
The Classification was 3 A450 class.

For ELLQFCRTPNPALKNGQYWV (modifications not checked) [CSPG4 (chondroitin sulfae proteoglycan 4, melanoma-associated)], which Classification is on record?
The Classification was 5 A450 class.

Target: T9, GST-KIAA0807(S) PDZ domain 1 (Homo …)
Test: G' assay

For KTMPAAMYRLLTAQEQPVYI (modifications not checked) [MINT-1], which Classification is on record?
Its Classification is 5 A450 class.

With PIPAGGCTFSGIFPTLTSPL (modifications not checked) [KIA 1481] as the binder, how does the Classification read?
Its Classification is 5 A450 class.

ELLQFCRTPNPALKNGQYWV (modifications not checked) [CSPG4 (chondroitin sulfae proteoglycan 4, melanoma-associated)] was tested. Which Classification did it give?
The Classification was 1 A450 class.

These binders were tested against GST-KIAA1634 PDZ domain 5 (Homo sapiens (Human)), Q5TCQ9 (assay: G' assay).
Sequence of GST-KIAA1634 PDZ domain 5 (Homo sapiens (Human)), Q5TCQ9 (Q5TCQ9 other isoform, or with tags, fused parts or gaps): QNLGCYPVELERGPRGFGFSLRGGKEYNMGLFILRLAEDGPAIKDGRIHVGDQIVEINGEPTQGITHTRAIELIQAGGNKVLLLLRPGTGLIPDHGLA

For PIPAGGCTFSGIFPTLTSPL (modifications not checked) [KIA 1481], which Classification is on record?
Its Classification is 1 A450 class.

With ELLQFCRTPNPALKNGQYWV (modifications not checked) [CSPG4 (chondroitin sulfae proteoglycan 4, melanoma-associated)] as the binder, how does the Classification read?
Its Classification is 2 A450 class.

What follows are binders tested against GST-Atrophin-1 Interacting Protein PDZ domain 5 (Rattus norvegicus (Rat)), O88382 (assay: G' assay).
Sequence of GST-Atrophin-1 Interacting Protein PDZ domain 5 (Rattus norvegicus (Rat)), O88382 (O88382 1128-1225): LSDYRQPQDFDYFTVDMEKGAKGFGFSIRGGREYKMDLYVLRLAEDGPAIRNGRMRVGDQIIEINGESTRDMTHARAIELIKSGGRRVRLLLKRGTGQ

For ELLQFCRTPNPALKNGQYWV (modifications not checked) [CSPG4 (chondroitin sulfae proteoglycan 4, melanoma-associated)], which Classification is on record?
The Classification was 2 A450 class.

Target: T10, GST-LIM-RIL PDZ domain 1 (Homo sapiens …)
Test: G' assay

ELLQFCRTPNPALKNGQYWV (modifications not checked) [CSPG4 (chondroitin sulfae proteoglycan 4, melanoma-associated)] was tested. Which Classification did it give?
The Classification was 2 A450 class.

Target: T11, GST-FLJ 10324 PDZ domain 1 [GST: P08515]
Test: G' assay

For KTMPAAMYRLLTAQEQPVYI (modifications not checked) [MINT-1], which Classification is on record?
The Classification was 5 A450 class.

ELLQFCRTPNPALKNGQYWV (modifications not checked) [CSPG4 (chondroitin sulfae proteoglycan 4, melanoma-associated)] was tested. Which Classification did it give?
The Classification was 5 A450 class.

Target: T12, GST-Outer Membrane PDZ domain 1 (Homo …)
Test: G' assay

Which Classification does the source give for ELLQFCRTPNPALKNGQYWV (modifications not checked) [CSPG4 (chondroitin sulfae proteoglycan 4, melanoma-associated)] here?
Its Classification is 1 A450 class.

These binders were tested against GST-BAI-1 Associated Protein PDZ domain 6 (Homo sapiens (Human)), Q96QZ7 (assay: G' assay).
Sequence of GST-BAI-1 Associated Protein PDZ domain 6 (Homo sapiens (Human)), Q96QZ7 (Q96QZ7 1143-1233): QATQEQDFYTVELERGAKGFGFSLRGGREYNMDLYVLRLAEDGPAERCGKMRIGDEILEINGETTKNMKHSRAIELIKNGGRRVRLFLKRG

How did the Classification turn out when PIPAGGCTFSGIFPTLTSPL (modifications not checked) [KIA 1481] was run?
Its Classification is 2 A450 class.

How did the Classification turn out when ELLQFCRTPNPALKNGQYWV (modifications not checked) [CSPG4 (chondroitin sulfae proteoglycan 4, melanoma-associated)] was run?
The Classification was 4 A450 class.

These binders were tested against GST-KIAA807 [GST: P08515] (assay: G' assay).
Sequence of GST-KIAA807 [GST: P08515] (P08515 whole entry): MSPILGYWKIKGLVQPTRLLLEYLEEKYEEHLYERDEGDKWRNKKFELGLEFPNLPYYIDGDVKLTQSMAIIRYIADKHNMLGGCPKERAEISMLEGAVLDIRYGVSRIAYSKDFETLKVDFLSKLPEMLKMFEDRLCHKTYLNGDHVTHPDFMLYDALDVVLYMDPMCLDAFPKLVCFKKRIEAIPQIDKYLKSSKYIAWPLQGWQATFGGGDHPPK

For KTMPAAMYRLLTAQEQPVYI (modifications not checked) [MINT-1], which Classification is on record?
The Classification was 4 A450 class.

With PIPAGGCTFSGIFPTLTSPL (modifications not checked) [KIA 1481] as the binder, how does the Classification read?
The Classification was 5 A450 class.

Which Classification does the source give for ELLQFCRTPNPALKNGQYWV (modifications not checked) [CSPG4 (chondroitin sulfae proteoglycan 4, melanoma-associated)] here?
Its Classification is 1 A450 class.

Target: T13, GST-MINT1 PDZ domain 2 (Mus musculus …)
Test: G' assay

Which Classification does the source give for PIPAGGCTFSGIFPTLTSPL (modifications not checked) [KIA 1481] here?
The Classification was 3 A450 class.

With ELLQFCRTPNPALKNGQYWV (modifications not checked) [CSPG4 (chondroitin sulfae proteoglycan 4, melanoma-associated)] as the binder, how does the Classification read?
The Classification was 5 A450 class.
